# Measurements: the nanobody polyreactivity screen of Harvey et al. (2022)
# Test: yeast display, Sf9 membrane polyspecificity reagent, FACS + sequencing; frameworks hold sequencing errors
# Summary of the method: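 Genes from sorted yeast were amplified by colony PCR, read by MiSeq 2 × 250 sequencing and filtered on CDR length. These cells carried a synthetic nanobody library in Saccharomyces cerevisiae BJ5465 and were sorted by FACS into low and high (top ~1%) gates on anti-HA and streptavidin fluorescence. Polyreactivity is labelled according to the gate of origin.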
row,Sequence,polyreactivity (PSR sort gate)
1,QVQLVESGGGLVQAGGSLRLSCAASGFTFERNTMGWYRQAPGKERELVATITRRGTSTYYADSVKGRFTISRDNAKNTVYLQMNSLKPEDTAVYYCARGQYSHRSQAGMDYWGQGTQVTVSS,high polyreactivity
2,QVQLVESGGGLVQAGGSLRLSCAASGFTFERYAMGWYRQAPGKERELVAAIDWRGVNTYYADSVKGRFTISRDNAKNTVYLQMNSLKPEDTAVYYCNARAYGRYYWGQGTQVTVSS,high polyreactivity
3,QVQLVESGGGLVQAGGSLRLSCAASGFTFESNAIGWYRQAPGKERELVAAISSSGGSTYYADSVKGRFTISRDNAKNTVYLQMNSLKPEDTAVYYCNAYSLYYGGYDYWGQGTQVTVSS,high polyreactivity
4,QVQLVESGGGLVQAGGSLRLSCAASGFTFESYAMGWYRQAPGKERELVAAISWNGGSSYYADSVKGRFTISRDNAKNTVYLQMNSLKPEDTAVYYCAARGRAPRFRRIGYDYWGQGTQVSVSS,high polyreactivity
5,QVQLVESGGGLVQAGGSLRLSCAASGFTFESYAMGWYRQAPGKERELVAAISWNGGSTYYADSVKGRFTISRDNAKNTVYLQMNSLKPEDTAVYYCAARGRAPRFRRIGYDYWGQGTQVTVSS,high polyreactivity
6,QVQLVESGGGLVQAGGSLRLSCAASGFTFEYNAMGGYRQDPGKERELVAAITTTGSTYYADSVKGRFTISRDNAKNTVYLQMNSLKPEDTAVYYCAADPVWRGYSYQFDYWGQGTQVTVSS,low polyreactivity
7,QVQLVESGGGLVQAGGSLRLSCAASGFTFEYYAMGWYRQAPWKERELVATITWNGGSTYYADSVKGRFTISRDNAKNTVYFQMNSLKPEDTAVYYCAADEQAYYVRRFDYWGQGTQVTVSS,low polyreactivity
8,QVQLVESGGGLVQAGGSLRLSCAASGFTFFINGMGWYRQAPGKERELVAAIRSSGASTYDADSVKGRFTISRDNAKNTVYLQMNSLQPEDTAVYYCAVPLGAVGGPVDYWGQGTQVTVSS,low polyreactivity
9,QVQLVESGGGLVQAGGSLRLSCAASGFTFFKYAMGWYRQAPGKERELVAAITRNGGRTYYADSVKGRFTISRDNAKNTVYLQMNSLKPEDTAVYYCAAVQYRYGGMDYWGQGTQVTVSS,high polyreactivity
10,QVQLVESGGGLVQAGGSLRLSCAASGFTFFQYAKGWYRQAPGKERELVAAISARGGRTYYADSVKGRFTISRDNAKNTVYLQMNSLKPEDTAVYYCAKRTRTIQGHYDYWGQGTQVTVSS,high polyreactivity
11,QVQLVESGGGLVQAGGSLRLSCAASGFTFFRNAMGWYRQAPGKEMELVAAISGSGGSTYYADSVKGRFTISRDNAKNTVYLQINSLKPEDTAVYYCATYSYPAKVPEAYNYWGQGSQVTVSS,low polyreactivity
12,QVQLVESGGGLVQAGGSLRLSCAASGFTFFRYAMGWYRQAPGKERELVATITRGGSTNYADSVKGRCTISRDNAKNTDYLQMNSLQPEDTAVYYCNKDKKTPTFDYWGQGTQVTVSS,low polyreactivity
13,QVQLVESGGGLVQAGGSLRLSCAASGFTFFSYTMGWYRQAPGKERELVAAISKRGSRTYYADSVKGRFTISRDNAKNTVYLQRNSLKPEDTAVYYCAADCGREVVLRREDYWGQGTQVTVSS,high polyreactivity
14,QVQLVESGGGLVQAGGSLRLSCAASGFTFFVNAMGWYRQAPGKERELVAAISIRSGGRTYYADSVKGRFTISRDNAKNTVYLQMNSLKPEDTAVYYCAAESSRPEHTYHYYRFLFDYWGQGTQVTVSS,low polyreactivity
15,QVQLVESGGGLVQAGGSLRLSCAASGFTFFYNAMGWYRQAPGKEREFVAAISGRGGTTYYADSVKGRFTISRDNAKNTVYLQMNSLKPEDTAVYYCAARSVSTLRYTSRKLRYDYWGQGTQVTVSS,high polyreactivity
16,QVQLVESGGGLVQAGGSLRLSCAASGFTFFYYDMGWYRQAPGKERELVADITTGGSTYYADSVKGRFTISRDNAKNTVYLQMNSLKPEDTAVYYCAALLYVSNSYRWWPWDGEDYWGQGTQVTVSS,high polyreactivity

row,Sequence,polyreactivity (PSR sort gate)
1,QVQLVESGGGLVQAGGSLRLSCAASGFTFFYYVMGWYRQAPGKERELVAAISQHGGSTYYADSVKGRFTISRDNAKNTVYLQMNSLKPEDTAVYYCAASPVVNRRGTYGYWGQGTQVTVSS,high polyreactivity
2,QVQLVESGGGLVQAGGSLRLSCAASGFTFGENAMGWYRQAPGKEWELVATISDSGDSTYYADSVKGRFTISRDNAKNTVYLLMNSLKPEDTAVYDCNAEQVCYTYGRYPEWYLYGYWGQGTQVTVSS,low polyreactivity
3,QVQLVESGGGLVQAGGSLRLSCAASGFTFGFYAMGWYRQGPGKERELVAASTRSGGTTYYADSVKGRFTISRDNAKNTVYLQMNSLKPEDTAVYYCAADYTKYYRRYYYWGQGTQVTVSS,high polyreactivity
4,QVQLVESGGGLVQAGGSLRLSCAASGFTFGGNDMGWYSQAPGKERELVAAIRSSGDTTYYADSVKGRFTISRDNAKNTVYLQMNSLKPEDTAVSYCAAYSHHQFSRSEYYYWGKGTQVTVSS,low polyreactivity
5,QVQLVESGGGLVQAGGSLRLSCAASGFTFGGNVMGWYRQAPGKERELVAAIRGTGGNTYYADSVKGRFTISRDNAKNTVYLQMNSLKPEDTAVYYCAAAQRELPTVRRNYWGQGTQVTVSS,high polyreactivity
6,QVQLVESGGGLVQAGGSLRLSCAASGFTFGGYAMGWYRQAPGKERELVAAIRASGGSTYYADSVKGRFTISRDNAKNTVYLQMNSLKPEDTAVYYCNADIWYKTYDYWGQGTQVTVSS,low polyreactivity
7,QVQLVESGGGLVQAGGSLRLSCAASGFTFGGYAMGWYRQAPGKERELVAAIRSSGDTTYYADSVKGRFTISRDNAKNTVYLQMNSLKPEDTAVYYCAAYSHHQFSRSEYYYWGQGTQVTVSS,low polyreactivity
8,QVQLVESGGGLVQAGGSLRLSCAASGFTFGGYAMGWYRQAPGKERELVAAISKSGGRTYYADSVKGRFTISRDNAKNTVYLQMNSLKPEDTAVYYCAASTIWHYDSWGQGTQVTVSS,high polyreactivity
9,QVQLVESGGGLVQAGGSLRLSCAASGFTFGGYVMGWYRQAPGKERELVAAISSSGGITHYADSVKGRFTISRDNAKNTVYLQMNSLKPEDTAVYYCNALYRQRYYWGQGTQVTVSS,high polyreactivity
10,QVQLVESGGGLVQAGGSLRLSCAASGFTFGHYALGWYRQATGKERELVAAITRSGGNTYYADSVKGRFTISRYNAKNTVYLQMNSLKPEDTAVYYCAARLGWVYYSRSRYGYWGQGTQVTVSS,high polyreactivity
11,QVQLVESGGGLVQAGGSLRLSCAASGFTFGHYAMGWYRPAPGKERELVAAISSGDRTYYADSVKGRFTISRDNAKNTVYLQMNSLKPEDTAVYYCNAVYYSWAQSARFDYWGQGTQVTVSS,low polyreactivity
12,QVQLVESGGGLVQAGGSLRLSCAASGFTFGHYAMGWYRQAPGKERELVAAISIDGGRTYYADSVKGRFTISRDNAKNTVYLQMNSLKPEDTAVYYCAAAVAGRKMGYWGQGTQVTVSS,high polyreactivity
13,QVQLVESGGGLVQAGGSLRLSCAASGFTFGKNAMGWYRQAPGKERELVAAIDTGDRTNYADSVKGRFTISRDNAKNTVYLQMNSLKPEDTAVYYCATDVVFSSYDYWGQGTQVTVSS,low polyreactivity
14,QVQLVESGGGLVQAGGSLRLSCAASGFTFGLYAMGWYRQAPGKERELVAAISSDGSTYYTDSVKGRFTISRDNAKNTVYLQMNSLKPEDTSVYYCNRDYPQSLPYYTNTILYGYWGQGTQVTVSS,low polyreactivity
15,QVQLVESGGGLVQAGGSLRLSCAASGFTFGLYTMGWYRQAPGKERELVAAITSSGARTYYADSVKGRFTISRDNAKNTVNLQMNSLKPEDTAVYYCNAGKRGSTYYYWGQGTQVTVSS,high polyreactivity
